Assay results taken from patent US12637513B2, “Method of treating cancer by administering an inhibitor of erythropoietin receptor activity comprising either erythropoietin receptor or erythropoietin protein” (ImmunEdge, Inc., priority 2022, dated 2026).

How the values were obtained:
[1] = target: T1, 293T/EPOR/CD131 cells (Homo sapiens, UniProt P19235); experiment: Staining of 293T/EPOR/CD131 cells with purified antibodies; format: binding
T1 construct: expressed in transfected cells; host or cells: 293T cells, lentiviral transduction
T1 sequence (P19235 25-508): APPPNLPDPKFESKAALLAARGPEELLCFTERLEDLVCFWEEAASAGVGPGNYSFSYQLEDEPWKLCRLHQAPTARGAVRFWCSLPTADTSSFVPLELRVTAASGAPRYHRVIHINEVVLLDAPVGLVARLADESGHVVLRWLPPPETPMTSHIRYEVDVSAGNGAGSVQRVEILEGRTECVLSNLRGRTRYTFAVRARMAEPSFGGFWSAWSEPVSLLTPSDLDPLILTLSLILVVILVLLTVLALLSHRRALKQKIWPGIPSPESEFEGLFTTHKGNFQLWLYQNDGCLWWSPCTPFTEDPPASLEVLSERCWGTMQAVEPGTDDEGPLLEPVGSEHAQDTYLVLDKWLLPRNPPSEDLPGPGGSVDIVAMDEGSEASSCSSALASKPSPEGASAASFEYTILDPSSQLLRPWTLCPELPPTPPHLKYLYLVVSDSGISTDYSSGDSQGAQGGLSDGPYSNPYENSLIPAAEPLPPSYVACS
Procedure: (§1) The purified antibodies were used to stain the human leukemia UT-7 cells, 293T/EPOR, 293T/CD131, and 293T/EPOR/CD131 cells to confirm antigen binding. The UT-7 cells were maintained in Roswell Park Memorial Institute (RPMI) with 10% Fetal Bovine Serum (FBS) and 5 ng/ml of recombinant human GM-CSF (Peprotech®, Cat #300-03). The 293T cells expressing hEPOR, hCD131, or both were maintained in Dulbecco's Modified Eagle Medium (DMEM) with 10% FBS. 1×10^6 cells/ml were incubated with purified hybridoma clones M2 and M41 at a 3-fold dilution series starting from 20 μg/ml for 30 minutes at 4° C. After washing, the cells were incubated with PE labeled secondary antibody and subjected to flowcytometric analysis. […] The binding profiles of the 293T/EPOR/CD131 cells are similar except the peak MFIs around 1500, half of that of the 293T/EPOR cells (FIG. 29B).

[2] = target: T2, EPOR-Fc (Homo sapiens, UniProt P19235); experiment: Bio-layer interferometry (Octet) binding of hybridoma antibodies to EPOR-Fc; details: hybridoma supernatants; 30 nM soluble receptor
T2 construct: The extracellular domains of EPOR or CD131 are produced as soluble Fc fusion proteins; purchased Sino Biological 10707-H02H
T2 sequence (P19235 25-250 limits assumed): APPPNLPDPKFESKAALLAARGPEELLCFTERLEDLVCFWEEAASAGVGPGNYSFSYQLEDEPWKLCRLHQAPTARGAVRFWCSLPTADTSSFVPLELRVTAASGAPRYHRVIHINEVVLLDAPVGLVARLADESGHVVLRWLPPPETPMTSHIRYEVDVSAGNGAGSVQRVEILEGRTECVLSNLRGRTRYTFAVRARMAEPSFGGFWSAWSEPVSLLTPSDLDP
Excerpt: The B cells from ATX-GK mice were fused with mouse myeloma cells to generate hybridoma. The hybridoma cells were screened twice. In the first screening, 293 cells expressing human EPOR, human CD131, or both were used as the primary screen. 87 hybridoma antibodies have been isolated by positive staining on 293T cells expressing human EPOR (hEPOR), human CD131 (hCD131), or both, with the hybridoma supernatants (Table 11 and FIG. 17). Expression of EPOR and CD131 was confirmed by flow cytometry with Phycoerythrin (PE)-labeled anti-EPOR (R&D Systems, Cat #FAB307P) and Alexa Fluor® 647 (AF647)-labeled anti-CD131 (BD Biosciences, Cat #564191), respectively (FIG. 28B). All hybridoma clones were purified and sequenced. Binding kinetics with soluble hetero-EPOR (EPOR-CD131-Fc), soluble EPO receptor subunit of hetero-EPOR (EPOR-Fc), and soluble CD131 subunit of hetero-EPOR (CD131-Fc) were measured using bio-layer interferometry (Octet®) by capturing the hybridoma antibodies in the supernatants on biosensors coated with anti-mouse Fc first and dipping the biosensors into the solutions containing 30 nM of the soluble receptor Fc fusion proteins. The supernatants were also used to block the interaction between EPO and EPOR. The soluble EPOR-CD131-Fc was first captured on biosensors coated with anti-human Fc and then dipped into 10 nM of EPO with or without the hybridoma supernatants. […]

[3] = target: T3, 293T/EPOR cells (Homo sapiens, UniProt P19235); experiment: Staining of 293T/EPOR cells with purified antibodies (flow cytometry); format: binding
T3 construct: expressed in transfected cells; host or cells: 293T cells expressing hEPOR
T3 sequence (P19235 25-508): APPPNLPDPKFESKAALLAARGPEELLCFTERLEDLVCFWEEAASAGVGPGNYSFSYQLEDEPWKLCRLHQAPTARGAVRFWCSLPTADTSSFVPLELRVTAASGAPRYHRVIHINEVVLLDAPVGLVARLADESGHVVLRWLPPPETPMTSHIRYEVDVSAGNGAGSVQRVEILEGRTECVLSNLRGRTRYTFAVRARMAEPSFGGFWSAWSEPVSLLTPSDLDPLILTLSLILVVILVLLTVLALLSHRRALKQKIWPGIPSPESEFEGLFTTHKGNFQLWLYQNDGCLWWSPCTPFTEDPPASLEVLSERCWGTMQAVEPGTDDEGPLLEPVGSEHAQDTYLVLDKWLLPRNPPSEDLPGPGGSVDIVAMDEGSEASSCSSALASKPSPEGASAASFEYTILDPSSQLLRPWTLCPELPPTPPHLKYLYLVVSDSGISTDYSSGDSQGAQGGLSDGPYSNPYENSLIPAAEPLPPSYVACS
Procedure: as §1

B1: EPORab - M2: hybridoma antibody clone, VH/VK in Table 10 (antibody, V domains shown)
VH: QVQLVESGGGLVKPGGSLRLSCAASGFTFSDSYMSWIRQAPGKGLEWVSYISNSGSYMYYADSVKGRFTISRDNAKNSLYLQMNNLRAEDTAVYYCARDKLGIGDYWGQGTLVTVSS
VL: DIQMTQSPSSLSASVGDRVTITCRASQGIRNDLGWFQQKPGKAPKRLIYAASRLQSGVPSRFSGSGSGTEFTLTISSLQPEDFATYCCLQHHTYPPTFGQGTKVEIK
[1]
  peak MFI: around 1500
[2]
  binding to EPOR-Fc: potent binding
[3]; 27 ng/ml purified antibody, 293T/EPOR cells
  mean or median fluorescence intensity (MFI): ~100%
[3]; 20 μg/ml purified antibody
  binding to 293T/EPOR cells: robust binding activities
